Assay results from publication PMC9108626, “Mammalian UPF3A and UPF3B can activate nonsense‐mediated mRNA decay independently of their exon junction complex binding” (The EMBO Journal, 2022).
One block for each binder: values may come before it.

Legend:
Settings in all cases: partners not purified
[1] = molecular target: T1, EIF4A3 (endogenous, HeLa Tet‐off) (human (endogenous in HeLa), UniProt P38919 1-411); experiment: co-IP; EIF4A3-IP (IgG-IP as control) from HeLa Tet-off cells and 3B^KO#3 HeLa Tet-off cells, with overexpression of CASC3 wild type or the HDAA mutant; immunoblot
T1 construct: EIF4A3, human, endogenous in HeLa Tet-off cells; also called EJC; source: endogenous, lysate of HeLa Tet-off and 3B^KO#3 HeLa Tet-off cells

[2] = molecular target: T2, EIF4A3 (endogenous, HCT116) (human (endogenous in HCT116), UniProt P38919 1-411); experiment: co-IP; EIF4A3-IP from 3^DKO#2 HCT116 cells stably expressing FLAG-tagged UPF3 proteins, UPF3A chimeras or EGFP; FLAG-tagged proteins quantified against EIF4A3; immunoblot
T2 construct: EIF4A3, human, core factor of the exon junction complex, endogenous in HCT116 cells; also called core EJC factor EIF4A3; source: endogenous, HCT116 lysate

[3] = molecular target: T2, EIF4A3 (endogenous, HCT116); experiment: co-IP; EIF4A3-IP (antibody on protein-A Dynabeads; normal rabbit IgG as control) from WT and UPF3B mutant (3B^Δ2BD, 3B^KO) HCT116 lysates; 4°C, washes with 150 mM NaCl; immunoblot

T2 sequence (P38919 whole entry): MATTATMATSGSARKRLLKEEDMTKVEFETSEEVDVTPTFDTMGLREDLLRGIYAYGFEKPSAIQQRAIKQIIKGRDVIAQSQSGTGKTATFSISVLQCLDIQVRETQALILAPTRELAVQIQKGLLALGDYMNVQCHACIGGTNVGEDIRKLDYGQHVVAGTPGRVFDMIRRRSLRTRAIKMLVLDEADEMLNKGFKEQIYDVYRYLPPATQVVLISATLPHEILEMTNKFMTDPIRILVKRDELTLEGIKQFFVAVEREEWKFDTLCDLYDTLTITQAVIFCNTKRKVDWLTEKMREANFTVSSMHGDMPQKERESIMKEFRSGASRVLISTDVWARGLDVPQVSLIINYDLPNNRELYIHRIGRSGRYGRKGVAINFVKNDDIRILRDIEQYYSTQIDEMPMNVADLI
T1 sequence (P38919 whole entry): as above

B1: UPF3B (endogenous, HeLa Tet‐off) (natural protein, human (endogenous in HeLa), UniProt Q9BZI7 1-483, looked up)
chain: MKEEKEHRPKEKRVTLLTPAGATGSGGGTSGDSSKGEDKQDRNKEKKEALSKVVIRRLPPTLTKEQLQEHLQPMPEHDYFEFFSNDTSLYPHMYARAYINFKNQEDIILFRDRFDGYVFLDNKGQEYPAIVEFAPFQKAAKKKTKKRDTKVGTIDDDPEYRKFLESYATDNEKMTSTPETLLEEIEAKNRELIAKKTTPLLSFLKNKQRMREEKREERRRREIERKRQREEERRKWKEEEKRKRKDIEKLKKIDRIPERDKLKDEPKIKVHRFLLQAVNQKNLLKKPEKGDEKELDKREKAKKLDKENLSDERASGQSCTLPKRSDSELKDEKPKRPEDESGRDYREREREYERDQERILRERERLKRQEEERRRQKERYEKEKTFKRKEEEMKKEKDTLRDKGKKAESTESIGSSEKTEKKEEVVKRDRIRNKDRPAMQLYQPGARSRNRLCPPDDSTKSGDSAAERKQESGISHRKEGGEE
notes: UPF3B, human, endogenous in HeLa Tet-off cells; source: endogenous, HeLa Tet-off lysate
fold increase of co-IP upon overexpression of wild-type CASC3 [1]: 2.6 fold

B2: FLAG‐tagged human UPF3A (stably expressed in 3^DKO#2 cells) (natural protein, UniProt Q9H1J1 1-476, looked up)
chain: MRSEKEGAGGLRAAVAARGPSGREKLSALEVQFHRDSQQQEAETPPTSSSGCGGGAGKPREEKRTALSKVVIRRLPPGLTKEQLEEQLRPLPAHDYFEFFAADLSLYPHLYSRAYINFRNPDDILLFRDRFDGYIFLDSKGLEYPAVVEFAPFQKIAKKKLRKKDAKTGSIEDDPEYKKFLETYCVEEEKTSANPETLLGEMEAKTRELIARRTTPLLEYIKNRKLEKQRIREEKREERRRRELEKKRLREEEKRRRREEERCKKKETDKQKKIAEKEVRIKLLKKPEKGEEPTTEKPKERGEEIDTGGGKQESCAPGAVVKARPMEGSLEEPQETSHSGSDKEHRDVERSQEQESEAQRYHVDDGRRHRAHHEPERLSRRSEDEQRWGKGPGQDRGKKGSQDSGAPGEAMERLGRAQRCDDSPAPRKERLANKDRPALQLYDPGARFRARECGGNRRICKAEGSGTGPEKREEAE
notes: UPF3A, human, CCDS9543.1; wild type; domains are defined over residues 2-476; cloned in pcDNA3ez-FLAG and moved to a Tet-ON PiggyBac plasmid; also called hUPF3A; FLAG‐UPF3A
fold weaker co-IP against UPF3B [2]: ~3 fold

More lines, now with the values ahead:

fold increase of co-IP upon overexpression of wild-type CASC3 [1]: 3 fold
B3: UPF3A (endogenous, UPF3B knockout HeLa Tet‐off) (natural protein, human (endogenous in HeLa), UniProt Q9H1J1 1-476, looked up)
chain: B2 chain
notes: UPF3A, human, endogenous in HeLa Tet-off cells; source: endogenous, 3B^KO#3 HeLa Tet-off lysate

fold increase of co-IP in UPF3B mutant cells over WT cells [3]: ~2 fold
B4: UPF3A (endogenous, HCT116) (natural protein, human (endogenous in HCT116), UniProt Q9H1J1 1-476, looked up)
chain: B2 chain
notes: UPF3A, human, endogenous in HCT116 cells; source: endogenous, HCT116 lysate (WT, 3B^Δ2BD, 3B^KO cells)
